According to paper PMC12700558, “Aggregation shifts amyloid-β peptides from synaptogenic to synaptotoxic” (The Journal of Clinical Investigation, 2025):

Experiments:
human neurons = experiment: NLS-TdTomato cytotoxicity assay (cytoplasmic leakage of NLS-TdTomato); conditions: 5% DMSO or 200 μM hydrogen peroxide, each applied for 4 hours, DIV30
Procedure: The MTT assay employs yellow tetrazolium dye that is reduced to a purple formazan crystal by viable cells with active metabolism ([21]). Because it measures metabolic activity in all cells, this assay serves as a broad cytotoxicity read out for the entire glia/neuron coculture system. The amount of formazan produced is then measured because it is directly proportional to the number of viable cells ([21]) (Figure 1B and Supplemental Figure 1A). The nuclear localization TdTomato assay, conversely, enables monitoring of cellular stress by tracking the localization of fluorescent TdTomato fused to a nuclear localization signal. Under healthy conditions, the nuclear localization signal directs the NLS-TdTomato to the nucleus. When toxicity in a cell causes a reduction in ATP levels, NLS-TdTomato leaks out of the nucleus into the cytoplasm, which we scored as an index of toxicity (Figure 1, C and D, and Supplemental Figure 1, B–D). Because the reporter is expressed only in neurons, this assay specifically assesses neurotoxicity within the coculture. We developed this assay because it can be performed on live cells and reflects decreases in ATP levels in these cells. […]
To assess neuronal cytotoxicity induced by Aβ peptides, we employed a novel Td-Tomato cytotoxicity assay that we developed. […] Neurons displaying cytoplasmic Td-Tomato were counted as indicators of cytotoxicity. […]

[1] = tested on: human neurons cocultured with mouse glia; experiment: Aβ42 fractionation experiment, MTT assay of supernatant and pellet; assay type: cell-based; conditions: fractions of Aβ42 preaggregated at 37°C for 24 hours, 20,000g 15 minutes; 0.2 μM chronic, DIV45
Procedure: Aggregation mixtures were centrifuged at 20,000g for 15 minutes at 4°C. The supernatant (enriched in monomer, small oligomers and residual larger species) was removed without disturbing the pellet. The pellet (large aggregates and high-molecular-weight oligomers) was resuspended in DMSO to the original volume. Supernatant and the resuspended pellet were administered to neurons, independently, at the concentration of 0.2 μM following the same protocol of administration used in this study (Figure 1A) and described above.

Compound	Validation of the NLS-TdTomato assay: nuclear-to-cytoplasmic shift of NLS-TdTomato (in words) (human neurons)	Loss of viability, MTT assay (in words) [1]
OO [hydrogen peroxide]	rapidly induced the nuclear-to-cytoplasmic shift of NLS-TdTomato	–
pellet: pellet of centrifuged preaggregated Aβ42, large aggregates and high-molecular-weight oligomers, resuspended in DMSO	–	same loss of viability
supernatant: supernatant of centrifuged preaggregated Aβ42, enriched in monomer, small oligomers and residual larger species	–	same loss of viability
